The target in test [1] is prefusion-stabilized RSV F (DS-Cav1), subtype A (strain A2), with C-terminal His tag and Strep-tag I (human respiratory syncytial virus subtype A (strain A2)) (UniProt P03420). Put plainly: SPR. (In general: In SPR one partner is held on a chip, and binding of the other changes the refractive index at the surface.)
Test [2] has as its target prefusion-stabilized RSV F (DS-Cav1), subtype B (strain B9320), with C-terminal His tag and Strep-ta (human respiratory syncytial virus subtype B (strain B9320)). Nature of the test: SPR.
Test [3] concerns the target subtype A DS-Cav1 with a K209Q substitution (form used for SPR) (human respiratory syncytial virus subtype A (strain A2)) (UniProt P03420). Nature of the test: SPR.
The target of test [4] is prefusion-stabilized RSV F variant DS-Cav1 from strain A2, tags removed, Endo H-treated (form used for crystallization) (human respiratory syncytial virus subtype A (strain A2)) (UniProt P03420). Put plainly: crystal structure.

Sequence of AM22 antigen-binding fragment (Fab) (VH): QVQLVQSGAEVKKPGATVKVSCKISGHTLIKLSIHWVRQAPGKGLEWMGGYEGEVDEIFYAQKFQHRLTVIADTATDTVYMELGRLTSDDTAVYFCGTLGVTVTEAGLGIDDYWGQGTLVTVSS
Sequence of AM22 antigen-binding fragment (Fab) (VL): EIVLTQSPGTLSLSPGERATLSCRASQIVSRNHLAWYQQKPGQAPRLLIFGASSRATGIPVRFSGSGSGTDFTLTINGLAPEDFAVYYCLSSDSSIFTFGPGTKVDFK

One may read the Kd as the free concentration of one partner at which half of the binding sites on the other are occupied at equilibrium, for simple one-to-one binding. Higher therefore signals lower affinity. Take AM22 antigen-binding fragment (Fab): the results for the Kd in test [1], in test [2] and in test [3] were 0.12 nM, 6.1 nM and 6.7 nM, respectively. The same substance registered a stoichiometry N (Fabs per F trimer) in test [4] of 3.
For D25 Fab, the Kd was under 0.064 nM in test [1] and 0.33 nM in test [2].

The record behind these values is article PMC6658013.
